Assay results taken from publication PMC11172311, “Structural and Interactional Analysis of the Flavonoid Pathway Proteins: Chalcone Synthase, Chalcone Isomerase and Chalcone Isomerase-like Protein” (International Journal of Molecular Sciences, 2024).

Legend:
purified protein = substrate: O=C(/C=C/c1ccc(O)cc1)c1c(O)cc(O)cc1O; assay: purified protein; assay type: biochemical, Panicum virgatum
[1] = substrate: O=C(/C=C/c1ccc(O)cc1)c1c(O)cc(O)cc1O; assay: steady-state kinetics (Km); assay type: biochemical, Sorghum bicolor
[2] = substrate: O=C(/C=C/c1ccc(O)cc1)c1ccc(O)cc1O; assay: steady-state kinetics (Km); assay type: biochemical, Sorghum bicolor
[3] = substrate: CC(C)(COP(=O)(O)OP(=O)(O)OC[C@H]1O[C@@H](n2cnc3c(N)ncnc32)[C@H](O)[C@@H]1OP(=O)(O)O)[C@@H](O)C(=O)NCCC(=O)NCCSC(=O)/C=C/c1ccc(O)cc1; assay: steady-state kinetics, LC-MS/MS (Km); assay type: biochemical, Panicum virgatum; details: malonyl-CoA (co-substrate)

B1: PvCHI (chalcone isomerase) (Panicum virgatum) (protein)
chain: MAAVSEVAVDGVVFPPVARPPGSGRSHFLAGAGVRGMEIGGNFIKFTAIGVYLEEGAAVSALAKKWAGKSADELAADAAFFRDVVTGDFEKFTRVTMILPLTGEQYSGKVTENCVAYWKAVGVYTDAEGAAVDKFKEAFKPETFPPGASILFTHSPAGVLTVAFSKDSSVPESGGVAIDNKPLCEAVLESIIGEHGVSPAAKLSVAARVSELLKEASPAGGAPQAAAEPAVPVSA
notes: recombinant, N-terminal 6×-His tag
Q: With B1 as the protein, how does the Km (purified protein) read?
A: Its Km is 16.04 ± 6.28 µM.

Q: What about the kcat (purified protein) of the same protein?
A: The kcat was 8010 ± 1180 s⁻¹.

Q: What about the kcat/Km (purified protein) of the same protein?
A: The kcat/Km was 5e+08 M⁻¹ s⁻¹.

B2: SbCHI (chalcone isomerase, Bmr30) (Sorghum bicolor) (protein)
chain: MAVPEVVVEGVVFPPVARPPGSAGSHFLGGAGVRGIEIGGNFIKFTAIGVYLEDAAVSALAKKWAGKTADELASDAAFFRDVVTGDFEKFTRVTMLLPLTGEQYAGKVTENCVAFWKAVGLYTDAEGVAVEKFKEAFKPETFPPGASILFTHSSTGVLTVAFSKDSSVPASGGVAIENKHLCEAVLESIIGEHGVSPAAKLSLAARVSELLTKGTAGAADAPQAEPVSVTA
notes: recombinant SbCHI
Q: Which results are given for B2?
A: Km [1]: 16.55 ± 2.08 µM; kcat [1]: 2890 ± 144 s⁻¹; kcat/Km [1]: 1.74e+08 M⁻¹ s⁻¹; Km [2]: 1.585 ± 0.929 µM; kcat [2]: 0.239 ± 0.0274 s⁻¹; kcat/Km [2]: 151000 M⁻¹ s⁻¹

B3: PvCHS (chalcone synthase) (Panicum virgatum) (protein)
chain: MAGAAAAVTVEEVRKAQRASGPATVLAIGTATPANCVHQADYPDYYFRVTKSDHLTDLKEKFKRMCDKSMIRKRYMHLTEEFLAENPNMCAYMAPSLDARQDIVVVEVPKLGKAAAQKALKEWGQPRSRITHLVFCTTSGVDMPGADYQLTKLLGLRPSVNRLMMYQQGCFAGGTVLRVAKDLAENNRGARVLVVCSEITAVTFRGPSESHLDSLVGQALFGDGAAAVIVGADPDERAERPLFQLVSAAQTLLPDSEGAIDGHLREVGLTFHLLKDVPGLISKNIERALEAAFAPLGISDWNSIFWVAHPGGPAILDQVEAKVSLDKARMRATRHVLAEYGNMSSACVLFILDEMRKRSAEDGCATTGEGLDWGVLFGFGPGLTVETVVLHSVPITAGAAAA
notes: as for B1
Q: What does the source list for B3?
A: Km [3]: 0.1303 ± 0.0319 µM; kcat [3]: 0.00695 ± 0.00077 s⁻¹; kcat/Km [3]: 53300 M⁻¹ s⁻¹
